The target in experiment [1] is T1, cathepsin G (human) (human, UniProt P08311 21-244).
T1 sequence (looked up): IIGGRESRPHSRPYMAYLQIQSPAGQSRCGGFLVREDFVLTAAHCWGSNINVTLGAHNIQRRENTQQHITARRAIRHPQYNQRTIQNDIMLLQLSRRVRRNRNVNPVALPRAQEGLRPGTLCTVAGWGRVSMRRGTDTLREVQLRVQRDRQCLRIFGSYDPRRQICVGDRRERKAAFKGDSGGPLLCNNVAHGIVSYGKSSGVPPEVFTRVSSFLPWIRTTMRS
As to the kind of experiment: cell-based or functional assay.

Experiment [2] has as its target T2, elastase (human; for SPR purified from human sputum) (human, UniProt P08246 30-267).
T2 sequence (looked up): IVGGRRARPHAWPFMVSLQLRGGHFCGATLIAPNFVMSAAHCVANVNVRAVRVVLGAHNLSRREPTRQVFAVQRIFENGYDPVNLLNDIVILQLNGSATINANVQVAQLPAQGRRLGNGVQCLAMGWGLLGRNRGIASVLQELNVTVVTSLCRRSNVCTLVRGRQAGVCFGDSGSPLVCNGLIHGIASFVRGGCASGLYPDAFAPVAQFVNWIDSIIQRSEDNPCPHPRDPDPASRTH
As to the kind of experiment: cell-based or functional assay.

For experiment [3], the target named is kallikrein (human) (human, UniProt P03952 20-638, limits assumed). As to the kind of experiment: cell-based or functional assay.
The target of experiment [4] is T3, human activated coagulation factor X (FXa) (human, UniProt P00742 41-179; P00742 235-488). Briefly: cell-based or functional assay.
Experiment [5] deals with coagulation Factor XIa (FXIa) (human, UniProt P03951 19-625). As to the kind of experiment: cell-based or functional assay.
The target in experiment [6] is trypsin (sequencing grade, Roche) (human). As to the kind of experiment: cell-based or functional assay.
Experiment [7] addresses plasmin (human) (human, UniProt P00747 97-810). Briefly: cell-based or functional assay.
The target of experiment [8] is skin β-tryptase (human) (human, UniProt Q15661 31-275). As to the kind of experiment: cell-based or functional assay.
In experiment [9] the target is T2, elastase (human; for SPR purified from …). As to the kind of experiment: SPR (Biacore T100), rSimukunin immobilized on CM5, elastase as analyte, 1:1 Langmuir fit. The protocol:
(§1) Data were fitted using a […] binding model (Langmuir). RU: resonance units.
(§2) Surface plasmon resonance (SPR) assays. SPR experiments were conducted using a T100 instrument (Biacore Inc., Uppsala, Sweden) following the manufacturer's instructions. Sensor CM5, amine coupling reagents, and buffers were also purchased from Biacore Inc. (Piscataway, N.J., USA). IBS P (10 mM Hepes, pH 7.4, 150 mM NaCl, and 0.005% (v/v) P20 surfactant) was used as the running buffer for all SPR experiments, which were carried out as previously described (Albrecht et al., 1983, Hoppe Seylers Z Physiol Chem; 364:1697-1702). For analytes, FVIIa (recombinant) was purchased from American Diagnostica (Stamford, Conn.); FX, FXa (human, bovine, mouse), DEGR-FXa (human), des-Gla-FXa (human), FIXa, FXIa, FXIIIa, and thrombin were purchased from Haematologic Technologies, Inc. (Essex Junction, Vt.); elastase (purified from human sputum) was purchased from Molecular Innovations, Inc. (Novi, Mich.). All enzymes were of the highest available purity. For immobilization and kinetic analysis, rSimukunin (10 μg/ml) in acetate buffer pH 5.0 was immobilized over a CM5 sensor via amine coupling, resulting in a final immobilization of 475.3 RU. Kinetic experiments were carried out with a contact time of 180 seconds at a flow rate of 30 μl/minute at 25° C. rSimukunin-FXa complex dissociation was monitored for 1800 seconds, and the sensor surface was regenerated by a pulse of 30 seconds of 20 mM HCl at 30 μl/minute. In other experiments, other coagulation factors or enzymes were used as analytes. Blank flow cells were used to subtract the buffer effect on sensorgrams.
On the technique in general: SPR reads the build-up and loss of mass on a sensor chip optically.

In experiment [10] the target is T4, coagulation Factor XIIIa (FXIIIa) (UniProt P00488 39-732, limits assumed).
T4 construct: mature
T4 sequence (looked up): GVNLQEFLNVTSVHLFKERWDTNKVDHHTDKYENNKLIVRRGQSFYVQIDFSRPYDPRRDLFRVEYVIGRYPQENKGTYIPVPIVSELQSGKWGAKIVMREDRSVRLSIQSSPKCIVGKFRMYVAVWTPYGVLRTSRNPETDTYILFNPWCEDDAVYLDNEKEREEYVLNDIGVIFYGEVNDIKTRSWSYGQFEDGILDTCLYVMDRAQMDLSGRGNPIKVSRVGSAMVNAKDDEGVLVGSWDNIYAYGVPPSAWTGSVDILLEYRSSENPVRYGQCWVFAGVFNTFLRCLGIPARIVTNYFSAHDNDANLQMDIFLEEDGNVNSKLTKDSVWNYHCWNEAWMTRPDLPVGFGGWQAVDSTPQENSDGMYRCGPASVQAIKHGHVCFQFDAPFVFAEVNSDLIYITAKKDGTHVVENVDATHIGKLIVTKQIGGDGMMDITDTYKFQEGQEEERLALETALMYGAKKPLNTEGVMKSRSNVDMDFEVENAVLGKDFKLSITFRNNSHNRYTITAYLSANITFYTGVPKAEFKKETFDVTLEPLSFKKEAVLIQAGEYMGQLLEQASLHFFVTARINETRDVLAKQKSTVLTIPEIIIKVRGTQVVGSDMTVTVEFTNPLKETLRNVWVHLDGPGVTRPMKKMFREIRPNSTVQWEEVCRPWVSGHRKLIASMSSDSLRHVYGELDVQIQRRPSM
As to the kind of experiment: SPR (Biacore T100), rSimukunin immobilized on CM5.

Experiment [11] concerns the target T5, coagulation Factor VIIa (FVIIa), recombinant (UniProt P08709 61-466).
T5 construct: mature
T5 sequence (looked up): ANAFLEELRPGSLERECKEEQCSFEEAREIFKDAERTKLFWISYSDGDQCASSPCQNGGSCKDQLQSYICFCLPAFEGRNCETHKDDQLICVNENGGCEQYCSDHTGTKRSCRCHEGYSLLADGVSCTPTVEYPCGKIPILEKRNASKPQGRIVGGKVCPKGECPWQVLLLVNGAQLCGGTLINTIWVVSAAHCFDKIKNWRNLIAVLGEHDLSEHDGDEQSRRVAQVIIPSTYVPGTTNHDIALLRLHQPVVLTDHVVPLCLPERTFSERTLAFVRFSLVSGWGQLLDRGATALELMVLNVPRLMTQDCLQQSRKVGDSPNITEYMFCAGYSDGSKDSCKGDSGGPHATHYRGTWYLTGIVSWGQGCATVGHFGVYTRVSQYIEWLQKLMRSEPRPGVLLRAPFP
As to the kind of experiment: SPR (Biacore T100), rSimukunin immobilized on CM5.

Experiment [12] concerns the target T6, coagulation Factor X (FX), zymogen precursor of FXa (UniProt P00742 41-488).
T6 construct: mature; also called zymogenic form of FX
As to the kind of experiment: SPR (Biacore T100), rSimukunin immobilized on CM5.

Experiment [13] concerns the target T2, elastase (human; for SPR purified from …). Briefly: calculated by Cheng-Prusoff from the enzyme-inhibition IC50 and the substrate Km (250 uM substrate). The protocol:
(§3) The Kₘ for the elastase substrate was 38.5±3.3 μM, and the estimated Kᵢ was ˜0.65 nM. For FXa the substrate Kₘ was 161.6±17.4 μM, and the estimated Kᵢ was ˜2.1 nM. For Cathepsin G the Kₘ was 188±20 μM, and the Kᵢ was 100 nM. A general chymotrypsin substrate was used to assess Cathepsin G activity; as this substrate is not optimized for Cathepsin G it is likely that our measurement of the Kᵢ underestimates the effect of rSimukunin. Further studies of the effect of rSimukunin on Cathepsin G will be performed.
(§4) Enzymes, at the concentrations given in Table 1, were incubated with the indicated concentration of rSimukunin for five minutes at 30° C., followed by addition of substrate (250 μM final concentration). The amount of enzyme used in the assays was the lowest possible to give a linear substrate hydrolysis rate in the assays (r2>0.95). Substrate hydrolysis was followed in a Tecan Infinite M200 96-well plate fluorescence reader (Tecan group Ltd, Switzerland) using 365 nm excitation and 450 nm emission wavelength with a cutoff at 435 nm for 20 min at 30° C. Wells without enzyme were used to monitor spontaneous substrate hydrolysis and protease contamination in the inhibitor preparation. All experiments were performed in triplicate (for each enzyme and each concentration of the inhibitor). […]

Experiment [14] addresses T3, human activated coagulation factor X …. Described as above. The protocol:
as §3, §4

For experiment [15], the target named is T7, chymase (human) (human, UniProt P23946 22-247).
T7 construct: mature
T7 sequence (looked up): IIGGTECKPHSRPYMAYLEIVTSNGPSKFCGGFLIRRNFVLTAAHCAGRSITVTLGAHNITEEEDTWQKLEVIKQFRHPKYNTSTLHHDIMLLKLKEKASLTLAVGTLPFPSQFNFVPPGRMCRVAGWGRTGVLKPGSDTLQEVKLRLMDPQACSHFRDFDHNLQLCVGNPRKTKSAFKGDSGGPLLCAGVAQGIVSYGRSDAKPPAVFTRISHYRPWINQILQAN
As to the kind of experiment: enzyme inhibition assay, fluorogenic peptide substrate, 500 nM rSimukunin, 1.8 nM enzyme. On the procedure: Serine protease inhibition assays. rSimukunin (500 nM) was first pre-incubated with each enzyme for 10 min before the addition of the corresponding substrate. The amount of enzyme used in the assays was the lowest possible to give a linear substrate hydrolysis rate in the assays (r²>0.95). After incubation for 5 min at 30° C., substrate hydrolysis rate was followed in a Tecan Infinite M200 96-well plate fluorescence reader (Tecan group Ltd, Switzerland) using 365 nm excitation and 450 nm emission wavelength with a cutoff at 435 nm for 20 min at 30° C. Wells without enzyme were used to monitor spontaneous substrate hydrolysis and protease contamination in the inhibitor preparation. A t-test was used for the statistical analysis of the observed inhibition in the presence of 500 nM rSimukunin and when p<0.05, it was considered as statistically significant.
All enzymes used were of human origin and of the highest available purity. […]

Experiment [16] addresses T1, cathepsin G (human). As to the kind of experiment: calculated by Cheng-Prusoff from the enzyme-inhibition IC50 and the substrate Km (250 uM general chymotrypsin substrate). On the procedure: as §3, §4
Experiment [17] concerns the target T3, human activated coagulation factor X …. As to the kind of experiment: SPR (Biacore T100), rSimukunin immobilized on CM5, FXa as analyte, 1:1 Langmuir fit. On the procedure:
as §1, §2

T3 sequence (P00742 41-179 limits assumed, chain 1 of 2): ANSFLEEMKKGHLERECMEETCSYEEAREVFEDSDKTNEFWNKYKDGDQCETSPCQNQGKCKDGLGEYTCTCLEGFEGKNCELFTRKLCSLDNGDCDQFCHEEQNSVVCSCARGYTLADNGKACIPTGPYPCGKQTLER
T3 sequence (P00742 235-488 limits assumed, chain 2 of 2): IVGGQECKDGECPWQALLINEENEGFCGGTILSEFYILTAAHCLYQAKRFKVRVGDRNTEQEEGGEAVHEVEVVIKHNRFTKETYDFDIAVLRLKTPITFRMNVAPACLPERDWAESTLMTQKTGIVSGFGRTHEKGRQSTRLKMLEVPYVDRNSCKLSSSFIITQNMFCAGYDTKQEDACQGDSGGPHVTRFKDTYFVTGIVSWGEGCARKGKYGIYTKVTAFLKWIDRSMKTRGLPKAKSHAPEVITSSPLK
Chain of skin β-tryptase (human) (Q15661 31-275): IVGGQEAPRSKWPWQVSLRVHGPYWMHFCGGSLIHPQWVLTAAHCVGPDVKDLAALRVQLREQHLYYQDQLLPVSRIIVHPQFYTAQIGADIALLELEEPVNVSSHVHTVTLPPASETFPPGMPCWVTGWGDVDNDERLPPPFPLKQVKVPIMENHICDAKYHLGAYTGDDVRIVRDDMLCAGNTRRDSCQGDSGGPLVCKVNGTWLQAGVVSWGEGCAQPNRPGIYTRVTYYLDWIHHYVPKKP
Chain of trypsin (sequencing grade, Roche) (human) (P00760 24-246): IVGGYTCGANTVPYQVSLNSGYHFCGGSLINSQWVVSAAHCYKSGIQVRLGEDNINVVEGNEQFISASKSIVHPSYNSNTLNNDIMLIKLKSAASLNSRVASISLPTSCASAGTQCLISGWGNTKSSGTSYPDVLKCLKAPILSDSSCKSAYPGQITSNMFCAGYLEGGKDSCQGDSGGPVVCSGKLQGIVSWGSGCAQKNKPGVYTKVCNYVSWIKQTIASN
T6 sequence (P00742 41-488 limits assumed): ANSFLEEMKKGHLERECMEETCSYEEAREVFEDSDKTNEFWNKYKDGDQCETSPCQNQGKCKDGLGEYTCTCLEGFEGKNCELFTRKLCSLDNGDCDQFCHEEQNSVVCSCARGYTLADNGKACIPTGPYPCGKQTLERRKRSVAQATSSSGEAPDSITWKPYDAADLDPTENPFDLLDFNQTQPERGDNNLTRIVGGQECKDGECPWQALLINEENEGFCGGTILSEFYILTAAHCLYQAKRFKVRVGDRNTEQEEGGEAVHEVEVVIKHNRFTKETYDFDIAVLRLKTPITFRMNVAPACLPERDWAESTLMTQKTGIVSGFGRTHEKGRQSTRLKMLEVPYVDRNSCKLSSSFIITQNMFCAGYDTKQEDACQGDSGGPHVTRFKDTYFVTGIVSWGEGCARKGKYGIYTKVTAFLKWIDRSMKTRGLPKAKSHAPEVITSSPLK
Chain of kallikrein (human) (P03952 20-638 limits assumed): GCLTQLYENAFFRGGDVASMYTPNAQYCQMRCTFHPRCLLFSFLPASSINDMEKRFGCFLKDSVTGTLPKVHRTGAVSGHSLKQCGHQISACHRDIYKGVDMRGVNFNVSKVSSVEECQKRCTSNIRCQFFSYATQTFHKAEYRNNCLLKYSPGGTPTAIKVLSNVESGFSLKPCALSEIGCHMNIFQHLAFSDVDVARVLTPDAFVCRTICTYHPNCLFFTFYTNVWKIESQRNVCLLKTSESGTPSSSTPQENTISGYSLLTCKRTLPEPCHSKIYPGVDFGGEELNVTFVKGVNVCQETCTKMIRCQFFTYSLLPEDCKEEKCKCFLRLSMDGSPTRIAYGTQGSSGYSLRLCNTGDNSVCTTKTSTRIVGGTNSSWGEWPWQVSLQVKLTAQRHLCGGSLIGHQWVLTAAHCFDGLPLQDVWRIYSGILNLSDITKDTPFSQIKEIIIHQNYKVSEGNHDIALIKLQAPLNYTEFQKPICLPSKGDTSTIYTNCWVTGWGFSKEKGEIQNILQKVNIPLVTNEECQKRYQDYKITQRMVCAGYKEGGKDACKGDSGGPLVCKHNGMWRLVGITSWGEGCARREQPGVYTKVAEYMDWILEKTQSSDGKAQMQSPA
Chain of plasmin (human) (P00747 97-810): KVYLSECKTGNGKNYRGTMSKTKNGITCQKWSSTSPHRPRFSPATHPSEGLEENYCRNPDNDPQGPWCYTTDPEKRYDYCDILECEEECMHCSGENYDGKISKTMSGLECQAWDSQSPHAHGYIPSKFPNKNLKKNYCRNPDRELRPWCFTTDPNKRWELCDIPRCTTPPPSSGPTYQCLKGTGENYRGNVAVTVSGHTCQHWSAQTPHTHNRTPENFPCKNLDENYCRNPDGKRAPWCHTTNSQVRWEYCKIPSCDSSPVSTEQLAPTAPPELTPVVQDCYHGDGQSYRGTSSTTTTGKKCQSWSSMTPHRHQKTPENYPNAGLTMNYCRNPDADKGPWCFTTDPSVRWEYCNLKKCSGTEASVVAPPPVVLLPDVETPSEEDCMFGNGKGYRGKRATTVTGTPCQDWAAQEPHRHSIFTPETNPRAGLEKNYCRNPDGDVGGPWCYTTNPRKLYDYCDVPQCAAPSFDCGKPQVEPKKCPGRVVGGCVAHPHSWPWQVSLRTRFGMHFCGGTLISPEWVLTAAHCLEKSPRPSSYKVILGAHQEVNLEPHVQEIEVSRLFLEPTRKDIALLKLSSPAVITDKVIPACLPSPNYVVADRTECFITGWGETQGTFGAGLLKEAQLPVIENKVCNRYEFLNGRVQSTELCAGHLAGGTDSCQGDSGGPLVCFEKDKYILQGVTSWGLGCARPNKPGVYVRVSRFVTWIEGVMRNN
Chain of coagulation Factor XIa (FXIa) (P03951 19-625 limits assumed): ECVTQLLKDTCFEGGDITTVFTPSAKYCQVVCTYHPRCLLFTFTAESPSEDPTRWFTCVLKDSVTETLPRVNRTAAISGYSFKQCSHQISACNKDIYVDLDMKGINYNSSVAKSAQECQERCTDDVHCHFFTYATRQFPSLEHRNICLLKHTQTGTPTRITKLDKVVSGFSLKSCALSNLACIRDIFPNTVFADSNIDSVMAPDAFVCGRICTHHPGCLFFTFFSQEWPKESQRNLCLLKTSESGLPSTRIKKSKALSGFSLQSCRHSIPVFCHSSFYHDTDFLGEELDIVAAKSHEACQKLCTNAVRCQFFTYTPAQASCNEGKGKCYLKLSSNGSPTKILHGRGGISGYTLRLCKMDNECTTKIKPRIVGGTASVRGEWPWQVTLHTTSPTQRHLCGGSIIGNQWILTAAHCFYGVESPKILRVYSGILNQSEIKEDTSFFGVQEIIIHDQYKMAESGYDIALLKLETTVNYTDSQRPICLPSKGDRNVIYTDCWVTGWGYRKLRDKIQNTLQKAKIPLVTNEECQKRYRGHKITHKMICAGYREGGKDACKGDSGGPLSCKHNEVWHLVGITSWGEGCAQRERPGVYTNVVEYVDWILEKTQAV

B1: recombinant Simukunin (rSV-66), Simulium vittatum SV-66 without signal peptide, His-tagged, expressed in E. coli (other)
chain: QENVCNLPVDEGVCRALFKRFYYEPATDSCKEFYYGGCEGNGNRFKSKKECILKCQKNKQLIKTRKRKPKKTTKPPIPIISLD
notes: also called rSimukunin; WT rSimukunin; not shown: His tag(s) from vector pET-30 Ek/LIC ('C-terminal double His tags')
Turning to B1, the “Ratio of IC50 to enzyme concentration” value in experiment [1] was 32.5; in [2], 27.2; in experiment [3], 1150; in experiment [4], 52; in [5] it was 945; in experiment [6], 3790. In addition, the “Ratio of IC50 to enzyme concentration” value turned out to be 161 in [7] and 6680 in experiment [8]. For the same molecule, the dissociation constant Kd was determined as 0.4 nM in [9] and 3.07 nM in [17]. For the same molecule, the dissociation rate constant (koff) amounted to 0.0173 s⁻¹ in [9] and 0.000303 s⁻¹ in [17]. Besides, the figures for the on-rate constant (kon) in experiment [9] and in experiment [17] were 4.3e+07 M⁻¹ s⁻¹ and 98700 M⁻¹ s⁻¹, respectively. Also, the binding result in experiment [10] is “no binding (tested: 200 nM)”; in experiment [11] it was “no binding (tested: 200 nM)”; in experiment [12], “no binding (tested: 200 nM)”; in experiment [15] it was “binds”. In addition, the inhibition constant Ki in experiment [13] is about 0.65 nM; in experiment [14] it was about 2.1 nM; in experiment [16], 100 nM.

In general, Kd refers to the free concentration of one partner at which half of the binding sites on the other are occupied at equilibrium, for simple one-to-one binding. A high value points to lower affinity. One may read the koff as a measure of how fast the partners let go of each other. A low value points to a long-lived complex. The kon is the second-order rate constant of association. A word on the Ki: it is the equilibrium dissociation constant of an inhibitor or competing ligand from its target.

(Values after patent US20150038419A1 (US Dept. of Health and Human Services, published 2015).)
